The nanobody polyreactivity screen of Harvey et al. (2022)

Test: yeast display, Sf9 membrane polyspecificity reagent, FACS + sequencing; frameworks hold sequencing errors
Method in brief: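 A nanobody's polyreactivity label depends on the gate it was sorted from. Yeast display cells were stained with 10% biotinylated, detergent-solubilized Sf9 membrane reagent for 1 hour at 4 °C, enriched on streptavidin microbeads and sorted by FACS. The low and high (top ~1%) gates were set on anti-HA fluorescence for expression and streptavidin fluorescence for reagent binding.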

Sequence | polyreactivity (PSR sort gate)
QVQLVETGGGLVQAGGSLRLSCAASGLTFKYYTKGWYRQAPGKERELVASISWSGGSTYYADSVKGRFTISRDNAKNTVYLQMNSLKPEDTAVYYCARRGYWGPGALGGGGYYWGQGTQVTVSS | high polyreactivity
QVQLQESGGGLVQAGGSLRLSCAASGYISSWYPMGWYRQAPGKEREFVATLAPGATTYYADSVKGRFTISRDYAKNTVYLQMIRLKPEDTAVYYFAAGPENNDFYSFWGQGSQVTVSS | low polyreactivity
QVQLVESGGGLVQAGGSLRLSCAASGFTFDSYAMGWYRQAPGKERELVAAITSTGGSTYYADSVKGRFTISRDTAKNTVYLQMNSLKPEDTAVYYCAARGGYYKRGYWGQGTQVTVSS | high polyreactivity
QVQLVESGGGLVQAGGSLRLSCAASGRIFTNNAMGWYRQEPGKERELVAAISRSGGRTYYADSVKGRFTISRDIAKNTVYLQMNSLKPEDTAVYYCAAVHLFYGYNSPFTMDYWGQGTQVTVSS | high polyreactivity
QVQLVESGGGLVQAGGSLRLSCAASGSTFWLYAMGWYRQAPGKERELVASISSRGGSTYYADSVKGRFTISRDNAKNTVYLQMNSLKPEDTAVYYCAAKDIRYDDDYWGQGTQVTVSS | low polyreactivity
QVQLVESGGGLVQAGGSLRLSCAASGFTFYRNAMGWYRQAPRKERDLVAAISDSGGRTYYADSVKGRFTISRDNAMNTVYLQMNSLIPEDTAVYYCAADTVIWWVEYEYWGQGTQVTVSS | high polyreactivity
QVQLVESGGGLVQAGGSLRLSCAASGFTFVFYAIGWYRQAPGKARELVAAISSRGGSTYYADSVKGRFTISRDNAKNTVYLQMNSLKPEDTAVYYCNVVSPYWTTYEEYYWGQGTQVTVSS | high polyreactivity
QVQLVESGGGLVQAVGSLRLSCAASGSIFAVNTIGWYRQAPGKERELVASISQRGSSTYYADSVKGRFTISRDIAKNTVYLQMNSLIPEDTAVYYCAVVQRYWYAGIVPYDYWGQGTQVTVSS | high polyreactivity
QVHLVESGGGLVQAGGSLRLSCAASGSTFGTNAMGWYRQAPGKERELVARINSSASTTYADSVKGRFTISRDNAKNTVYLQMNSLKPEDTAVYYCAKSSLNIYDYWGQGTQVTVSS | high polyreactivity
QVQLVESGGGLVQSGGSLRLSCAASGSTFKFYAMGWYRQAPGKEREFVAAITSSGDSTYYADSVKGRFTISRDNAKNTVYLQMNSLKPEDTAVYYCAARLRWRYSYDYWGQGTQVTVSS | high polyreactivity
QVQLVESGGGLVQAGGSLRLSCAASGSIFSSNVMGWYRQAPWKERELVAAITVRGSRTYYADSVKGRFTISRDNAKNTVYLQLNSLKPEDTAVYYCNAVARVLGSDRRLQYYYWGQGTQVTVSS | high polyreactivity
QVEHLDSGGGLVQAGGILRLSCASSGIIFGYYAMGWYRQEPGKERELVAGITYRTGSTYYADSVKGRFTISRDNAKNTVYLQMNSLKPEDTEVYFCAATQYTRNYSSWYYYWGQGTQVTVSS | high polyreactivity
QVQHVESGRGLVQAGGSLRLSCAASGSIFRWYTMGWYRQAPGKERELVAAITSGGTTKYADSVKGRFTISRDNAKNTVYLQMNSLKPEDTAVYYCARRHRYRYDWGQGTQVTVSS | high polyreactivity
QVQLVESGGGLVQAGSSLRLSCAASGFTFNRYAMGWYRQAPGKERELVAAISWSGGSTYYADSVKGRFTISRDNAKNTVYLQMNSLKPEDTEVYYCSDATAYYRYRGGYDYWGQGTQVTVSS | high polyreactivity
QVQLVESGGGLVQAGGSLRLRCAASGSSFIWNAMGWYRQAPGKERELVAAISSGGSTYYADSVKGRFTISRDNAKNTVDLQMNSQKPPDTAVYYCAAEYVNNVWEQSYAVYSTDDYWGQGTQVTVSS | low polyreactivity
QVQLVDSGGGLVQAGGSLRLSCAASGRTFGRKAMGWYRQAPGERELVAVISRGGSTYYADSVKGRFTISRDNAKNTVYLQMNSLKPEDTAVYYCNADTVYTRTAPYDYCGQGTQVTVSS | low polyreactivity

Sequence | polyreactivity (PSR sort gate)
QVQLVESGGGLVQAGGSLRLSCAASGSIFYVYAMGWYRQAPGKERELVAAITNYADSVKGRFTISRDNAKNTVYLQMNSLKPEDTAVYYCAADWWRVEMDYWGQGTEVTVSS | low polyreactivity
QVQLVESGGGLVQAGGSLRLSCAASGFTFSVNAMVWYRQAPGKERELVAAISSRGSITYYADSVKGRFTISRDNAKNTVYLQMNSLKPEDTAVYYCAAKPLTGSSWEDYYWGQGTQVTVSS | high polyreactivity
QVQLVESGGVLVQAGGSLRLSCAASGSTFGWYAMGWYRQAPGKERELVAAITSVGSTYYADYVKGRFTISRDNAKNTVYLQMNSLKPEDTAVYYCAAGWTYAYTLSLYEYWGQGTQVTVSS | low polyreactivity
QVQLVESGGGLVQAGGSLRLSCAASGFIFSIYAMGLYRQAPGTERELVAGIDNGGGTYYADSVKGRFTISRDNAKNTVYLQMNSLKPEDTAVYYCAADTYSIGELYDYWGQGTQVNVSS | low polyreactivity
QVQLVESGGGLVQAGGSLRLSCAASGSIFFYYTMGWYRQAPGKERELVAAITWSGGSTYYADSVKGRFTISRDNAKNTVYLQMNSLKPEDTAVYYCAAGTRLYYYRLNYWGQGTQVTVSS | high polyreactivity
QVQLVESGGGLVQAGGSLRLSCAASGFIFYYYAMGWYRQAPGKVRELVAGITATGGSTYYADSVKGRFTISRDNAKNTVYLQMNSLKPEDTAVYYCAAEHGRRATYTWWVIYDYLGQGTQVTVSS | low polyreactivity
QVQLVESGGGIVQAGGSLRLSCAASGRIFSGNGMGWYRQAPGKEREFVAAIRFSSGSTYYADSVKGRFTISRDNAKNTVYLQMNSLKPEDTAVYYCARPSIPSRYDYWGQGTQVTVSS | high polyreactivity
QVQLVESGGGLVQAGGSLSLSCAASGRILYSYAMGWYRQAPGKERELVASISLSGGRTYADSVKGRFTISRDNAKNTVYLQMNSLKPEDTAVYYCNARIRTSRYLWPFDYWGQGTQVTVSS | high polyreactivity
QVQLVESGGGLVQAGGSLRLSCAASGYIFAIYAMGCYRQAPGKERELVAAISTSGGSTYYADSVKGRFTISRDNAKNTVYLQMNSLKPDDTAVYYCARPTTYGYYYWGQGTQVTVSS | high polyreactivity
QVQLVESGGGLVQAGGSLRLICAASGFIFLDYAMGWSRPAPGKERELVAAISSRGARTYYADSVKGRFTISRDNEKNTVYLQMNSLKPEDTAVYYCAARGPLDRYGYWGQGTQVTVSS | high polyreactivity
QVQIVESGGGLVQAGGSLRLSCAASGTTFDKYAMGWYRQAPGKERELVAAITTNGGNTYADSVKGRFTISRDNAKNTVYLQMNSLKPEDTAVYYCAADGPGGKGLYYYWGQGTQVTVSS | high polyreactivity
QVQLVESGGGLVQAGGSLRLSCAASGSTFYSYSMGWNRQAPGKERELVAAITKSGGSTYYADSVKGRFTISRDNAKNTVYLQMNSLKPEDTAVYYCAARQGVRMYWGQVTQVTVSS | high polyreactivity
QVQLVESGGGLVQAGGSLRLSCADSGSIFYGYTMGWYRQAPGKERELVAAISSSGGSTYYADSVKGRFTISRDNAKNTVYLQMNSLKPEDTAVYYCAAYVPYSPDHVEFNYWGQGTQVTVSS | high polyreactivity
QVQLVESGGGLVQAGGSLRLSCAASGSTFYPYAMGWYRQAPGKERELVASITTDDGSTYYADSVKGRFTISRDNAKNTVYLQMNSLKPEDTAVYYCAARFRGFAVDWYPFRQGDYWGQGTQVTVSS | low polyreactivity
QVQLVESGGGLVQAGGSLRLSCAASGRIIRAYDMGWYRQAPGKERELVAVIRYRGGTTYYADSVKGRFTISRDNAMNTVYLQMYSLKPEDTAVYYCATEDNYHWWYTGVSYGEHDYLGQGTQVTVSS | low polyreactivity
QVQLVESGGGLVQAGGSLRLSCAASGRILSYYAMGWYRQAPGKERELVAAITRGGSTYYADSVKGRFTISRDNAKNTVYLQMNSLKPEDTAVYYCAARKKTTYRDWGRHDYWGQGTQVTVSS | high polyreactivity
